Reference: article PMC6176016

Columns and labels:
Assay in all cases: FRET by FACS (LSRII)
WT TACI-YFP = conditions: HEK-293T cells, double positive YFP and mCherry gate, 6 independent experiments, read off a plot
[1] = biological target: CD40-eYFP (pReceiver-huCD40-eYFP) (UniProt P25942); conditions: co-transfected HEK-293T cells; percent of live cells in the gate, averaged for 6 experiments
[2] = biological target: TACI-L (long TACI isoform) labeled with mCherry or YFP (UniProt O14836); conditions: co-transfected HEK-293T cells; percent of live cells in the gate, averaged for 6 experiments
[3] = biological target: TACI-S (short TACI isoform) labeled with mCherry or YFP, O14836-2; conditions: co-transfected HEK-293T cells; percent of live cells in the gate, averaged for 6 experiments
Chain of TACI-S (short TACI isoform) labeled with mCherry or YFP, O14836-2 (O14836 other isoform, or with tags, fused parts or gaps): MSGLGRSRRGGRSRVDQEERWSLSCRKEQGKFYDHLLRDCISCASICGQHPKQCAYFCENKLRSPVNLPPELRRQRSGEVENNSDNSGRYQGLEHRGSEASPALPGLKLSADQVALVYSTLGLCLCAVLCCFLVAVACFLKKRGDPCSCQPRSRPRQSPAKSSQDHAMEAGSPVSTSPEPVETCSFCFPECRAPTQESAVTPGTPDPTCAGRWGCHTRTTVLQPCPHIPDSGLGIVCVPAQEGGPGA

Chain of TACI-L (long TACI isoform) labeled with mCherry or YFP (O14836 whole entry, canonical isoform): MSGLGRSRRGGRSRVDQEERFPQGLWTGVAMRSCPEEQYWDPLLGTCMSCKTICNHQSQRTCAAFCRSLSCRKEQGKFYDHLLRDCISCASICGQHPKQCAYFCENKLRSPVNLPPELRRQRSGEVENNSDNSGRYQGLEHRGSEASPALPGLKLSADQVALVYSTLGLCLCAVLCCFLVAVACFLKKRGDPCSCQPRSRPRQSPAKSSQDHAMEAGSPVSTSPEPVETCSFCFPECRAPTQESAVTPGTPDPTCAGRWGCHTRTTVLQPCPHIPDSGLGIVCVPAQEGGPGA
Chain of CD40-eYFP (pReceiver-huCD40-eYFP) (P25942 21-277): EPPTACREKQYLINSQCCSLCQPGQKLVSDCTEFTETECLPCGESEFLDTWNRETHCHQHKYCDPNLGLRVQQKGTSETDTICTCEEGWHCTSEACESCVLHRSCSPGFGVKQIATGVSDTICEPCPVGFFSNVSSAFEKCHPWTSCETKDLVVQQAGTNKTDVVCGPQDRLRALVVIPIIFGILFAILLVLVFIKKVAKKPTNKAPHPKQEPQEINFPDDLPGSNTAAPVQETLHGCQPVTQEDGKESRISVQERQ

Row | Substance | response (% FRET positive cells) (WT TACI-YFP; parent: est. 90) | response (% FRET positive cells) (WT TACI-YFP; parent: est. 72) | response (% FRET positive cells) [1] | response (% FRET positive cells) [2] | response (% FRET positive cells) [3]
1 | TACI-L A181E | 72 | – | – | – | –
2 | TACI-L C104R | 81 | – | – | – | –
3 | TACI-S A181E | – | 88 | – | – | –
4 | TACI-S C104R | – | 74 | – | – | –
5 | WT TACI (isoform of the mutant not stated in the panel) A181E | – | – | 0.38 | 16.8 | 19.6
6 | WT TACI (isoform of the mutant not stated in the panel) C104R | – | – | 0.02 | 14.8 | 18.7
